Results reported in US20260234276A1.

Key:
[1] = molecular target: human CCR8 (human) (UniProt P51685); test: flow cytometry on lymphocytes from ascitic ovarian cancer, 1 µg mAb
[2] = molecular target: human CCR8 (human) (UniProt P51685); test: flow cytometry on lymphocytes from ascitic ovarian cancer, 0.1 µg mAb
[3] = molecular target: human CCR8 (human) (UniProt P51685); test: flow cytometry on lymphocytes from ascitic ovarian cancer, 0.5 µg mAb
[4] = molecular target: human CCR8 (human) (UniProt P51685); test: flow cytometry, hCCR8 transfected CHOK1 cells

Positive cells [1] | Positive cells [2] | Positive cells [3] | % positive cells [4] | MFI fold change to isotype ctrl [4] | Substance
5.06% | 2.94% | 3.81% |  |  | Isotype ctrl (antibody)
8.64% | 9.5% |  | 86.5% | 19.8 fold | L263G8 (antibody)
